Experimental findings from patent publication US7005283B2, “Cytochrome P450 oxygenases and their uses” (Washington State University Research Foundation, priority 1999, dated 2006) are described below.

The nature of data set [1]: In vivo assay of yeast cells expressing recombinant oxygenases, radio-HPLC, substrate taxadiene. In kind it is cell-based, Saccharomyces cerevisiae. The settings on record: assayed with Taxadiene; graded symbols, key not given. The text has this: (§1) Transformed yeast cells that fimctionally express a recombinant cytochrome P450 gene from Taxus (by CO-difference spectrum) can be tested in vivo for their ability to oxygenate (hydroxylate or epoxidize) taxoid substrates fed exogenously to the cells, thereby eliminating the need for microsome isolation for preliminary in vitro assays.
(§2) Accordingly, several clones of the available full-length clones were expressed in induced yeast host cells.
(§3) Isolated transformants for each full-length cytochrome P450 clone shown to express a functional enzyme by CO-difference spectrum (ten clones) were grown to stationary phase in 2 mL SGI medium at 30° C. and used to inoculate a 10-mL expression culture (in YPL medium). Approximately 8 hours after induction, cells were harvested by centrifugation (10 minutes at 1500 rpm), and the pellet was resuspended in 2 mL of fresh YPL medium.
(§4) To eliminate additional complication and uncertainty associated with microsome isolations for in vitro assays, 10^6 dpm of [20-^3H3]taxa-4(5),11(12)-diene (16 Ci/mol) or [20-^3H2]taxa-4(20),11(12)-diene-5-α-ol (4.0 Ci/mol), or other taxoid substrate were added directly to the cell suspension to assay conversion in vivo. After 12 hours of incubation at 30° C. with agitation (250 rpm), the mixture was treated for 15 minutes in a sonication bath and extracted 3 times with 2 mL diethyl ether to insure isolation of the biosynthetic products. These ether extracts, containing residual substrate and derived product(s), were concentrated to dryness, resuspended in 200 μL of CH3CN, and filtered. These samples were analyzed by radio-HPLC (Hefner et al., Chemistry and Biology 3:479–489, 1996) using a 4.6 mm i.d.×250 mm column of Econosil C18, 5 μ (Alltech, Deerfield, Ill.) with a gradient of CH3CN in H2O from 0% to 85% (10 minutes at 1 mL/minute), then to 100% CH3CN over 40 minutes.

The format of data set [2] is binding, Saccharomyces cerevisiae. The source says: CO-sensor of the 19 full-length cytochrome P450 clones from Taxus, thus far obtained, ten have yielded detectable CO-difference spectra (Table 2). […] These alternative expression systems for cytochrome P450 genes include the yeast Pichia pastoris, for which expression vectors and hosts are commercially available (Invitrogen, Carlsbad, Calif.), as well as established E. coli and baculovirus-insect cell systems for which general expression procedures have been described (Barnes, Methods Enzymol. 272:1–14, 1996;Gonzalez et al., Methods Enzymol. 206:93–99, 1991;Lee et al., Methods Enzymol. 272:86–98, 1996;and Lupien et al., Arch. Biochem. Biophys. 368:181–192, 1999).
Appropriate restriction sites were introduced by standard PCR methods (Innis et al., PCR Protocols: A Guide to Methods and Applications, Academic Press, San Diego, Calif., 1990) immediately upstream of the ATG start codon and downstream of the stop codon of all full-length cytochrome P450 clones. These modified amplicons were gel-purified, digested with the corresponding restriction enzymes, and then ligated into the expression vector pYeDP60. The vector/insert junctions were sequenced to ensure that no errors had been introduced by the PCR construction. Verified clones were transformed into yeast using the lithium acetate method (Ito et al., J. Bacteriol. 153:163–168, 1983). Isolated transformants were grown to stationary phase in SGI medium (Pompon et al., Methods Enzymol. 272:51–64, 1996), and used as inocula for a large-scale expression culture grown in YPL medium (Pompon et al., Methods Enzymol. 272:51–64, 1996). Approximately 24 hours after induction of cytochrome P450 expression with galactose (to 10% final concentration), a portion of the yeast cell culture was harvested by centrifugation. One-half of the culture was treated with carbon monoxide, and the cytochrome P450 CO-difference spectrum was recorded directly (using untreated cells as a control) by spectrophotometry (Omura and Sato, J. Biol. Chem. 239:2370–2378, 1964).

The nature of data set [3]: In vivo assay of yeast cells expressing recombinant oxygenases, radio-HPLC, substrate taxadien-5α-ol. In kind it is cell-based, Saccharomyces cerevisiae. Particulars: yeast transformants, radio-HPLC and GC-MS.
Description: as §1, §2, §3, §4

B1: clone F82: Taxus cuspidata cytochrome P450 oxygenase, full-length clone, SEQ ID NO: 81 (nt) / 87 (aa) (protein, listed as Taxus cuspidata)
chain: MDAFNVLMGPLAKFDNFMQLGSYSENLSVTITVTAIAVITLLLVLIRSKPQSCVNLPPGKLGYPFIGETLQLLQAFRSNRPQQFFDERQKKFGSVFKTSLIGDRTVVLCGPSGNRLLLSNENKLVEASWPSSSIKLIGEDSIAGKNGEKHRILRAAVNRYLGPGALQNYMAKMRSEIEHHMNEKWKGKEQVKVLPLVKENVFSIATSLFFGVNDDGERERLHDLLETALAGVFSIPLDFPGTNYRKALEARLKLDKVLSSLIERRRSDLRSGVASGNEDLLSVWLTFKDEEGNPLTDKEILDNFSTLLHASYDTTTSALTLTLKLMSSSTECYHKVVQEQLRIVSNKKEGEEISLKDLKDMKYTWQVVQETLRMFPPLFGSFRKAITDIHYDGYTIPKGWKVLWTTYSTHGREEYFNEPEKFMPSRFEEEGRHVAPYTFLPFGAGVRTCPGWEFSKTQILLFLHYFVKTFSGYIPLDPDEKVLGNPVPPLPANGFAIKLFPRPSFDQGSPME
On to B1, for which, in data set [1], the “product identified HPLC peak” value is on record as “No”. Besides, the CO diff. spec. entry in data set [2] is “−”.

B2: clone F51: Taxus cuspidata cytochrome P450 oxygenase, full-length clone, SEQ ID NO: 47 (nt) / 60 (aa) (protein, listed as Taxus cuspidata)
chain: MDTIRASFGEVIQPEYSPLIISXALAAFLGIVIFSIFSSTRRSYVNLPPGNLGLPFIGETIQFLGALQSEKPHTFFDERVKKFGKVFKTSLIGDPTVVLCGPAGNRLVLSNEDKLVQSAGPKSFLKLFGEDSVAAKREESHRILRSALGRFLGPHALQNYIGKMNSEMQRHFDDKWKGKDEVKVLPLVRGLIFSIATSLFFNINDDRQREQLHGLLDTILVGSMTIPLNIPGTLFRKAVKARAKLDEILFALIENRRRELRSGLNSGNQDLLSSLLTFKDEKGNPLTDKEILDNFSVMLHASYDTTVSPTVLILKLLASNPECYEKVVQEQLGILASKKEGEEVNWKDLKAMPYTWQAIQEPLXMPXQLLECFEELSLIFSWKAIQFQKDGQLCGXLIVNGREEFFNEPDKFKPSRFEEGKPLDPYTFIPFGAGVRICAGWEFAKAELLLFVHPFVKNFSGCIIIDPNEKISGDPFPPLPTSGQLMKLIPRS
modifications: not fully specified; (1)..(492) “Xaa” equals any peptide
With B2, the “product formed from taxadien-5α-ol” value in data set [3] was “diol products”. Also, the “product identified HPLC peak” value in data set [1] is recorded as “No”. For the same molecule, the CO diff. spec. entry in data set [2] is “+”.

B3: clone F9: Taxus cuspidata cytochrome P450 oxygenase, full-length clone, SEQ ID NO: 48 (nt) / 61 (aa) (protein, listed as Taxus cuspidata)
chain: MDSFNFLRGIGADFGGFIQFQSSPAVLSLSLITTILGVLLLWFFLHKNGSSVTLPPGNLGFPFIGETIPFLRALRSETPQTFFDERVKKFGVVFKTRIVGHPTVVLCGPEGNRFLLSNEDKLVQASLPNSSEKLIGKYSILSKRGEEHRILRAALARFLRPQALQGYVAKMSSEIQHHIKQKWKGNDEVKVLPLIRTLIFNIASSLFFGINDEHQQEQLHHLLEAIVLGSLSVPLDFPGTRFRKALDARSKLDEILSSLMESRRRDLRLGTASENQDLLSVLLTFKDERGNPLTDKEIFDNFSFMLHASYDTTVSPTGLMLKLLFSSPDCYEKLVQEQLGIVGNKKEGEEISWNDLKAMKYTCKVVQESMRMLPPVFGSYRKAXTYIHYDGYTIPKGWNIFWSPYTTHGKEEYFNEADKFMPSRFEEGKYVAPYTFLPFGAGLRVCPGWEFAKTEILLFVHHFITTFSSYIPIDPKDKISGDPFPPLPTNGFSMKLFTRS
modifications: not fully specified; (1)..(500) “Xaa” equals any peptide
For B3, in data set [3], the “product formed from taxadien-5α-ol” value is given as “more polar products”. In addition, the “product identified HPLC peak” value in data set [1] was “No”. Also, in data set [2], the CO diff. spec. entry is given as “+”.

B4: clone F12: Taxus cuspidata cytochrome P450 oxygenase, full-length clone, SEQ ID NO: 43 (nt) / 56 (aa) (protein, listed as Taxus cuspidata)
chain: MDTFIQHESSPLLLSLTLAVILGTILLLILSGKQYRSSRKLPPGNMGFPLIGETIALISDTPRKFIDDRVKKFGLVFKTSLIGHPAVVICGSSANRFLLSNEEKLVRMSLPNAVLKLLGQDCVMGKTGVEHGIVRTALARALGPQALQNYVAKMSSEIEHHINQKWKGKDEVKVLPLIRSLVFSISTSLFFGINDEHQQKRLHHLLETVAMGLVSIPLDFPGTRFRKALYARSKLDEIMSSVIERRRSDLRSGAASSDQDLLSVLVTFKDERGNSFADKEILDNFSFLLHALYDTTISPLTLIFKLLSSSPECYENIAQEQLEILGNKKDREEISWKDLKDMKYTWQAVQETLRMFPPVYGYIREALTDIDYDGYTIPKGWRILCSPHTTHSKEEYFDEPEEFRPSRFEDQGRHVAPYTFIPFGGGLRICAGWEFAKMEILLFMHHFVKTFSHFIPVDPNEKISRDPLPPIPVKGFSIKPFPRS
B4: the “product formed from taxadien-5α-ol” value in data set [3] is recorded as “more polar products”. Moreover, in data set [1], the “product identified HPLC peak” value was “No”. For the same molecule, in data set [2], the CO diff. spec. result is “+”.

B5: clone F72: Taxus cuspidata cytochrome P450 oxygenase, full-length clone, SEQ ID NO: 54 (nt) / 67 (aa) (protein, listed as Taxus cuspidata)
chain: MDVFYPLKSTVAKFNECFPAILFIVLSAVAGIVLPLLLFLRSKRRSSVGLPPGKLGYPFIGESLLFLKALRSNTVEQFLDERVKNFGNVFKTSLIGHPTVVLCGPAGNRLILANEEKLVQMSWPKSSMKLMGEKSITAKRGEGHMIIRSALQGFFSPGALQKYIGQMSKTIENHINEKWKGNDQVSVVALVGDLVFDISACLFFNINEKHERERLFELLEIIAVGVLAVPVDLPGFAYHRALQARSKLNAILSGLIEKRKMDLSSGLATSNQDLLSVFLTFKDDRGNPCSDEEILDNFSGLLHGSYDTTVSAMACVFKLLSSNPECYEKVVQEQLGILSNKLEGDEITWKDVKSMKYTWQVVQETLRLYPSIFGSFRQAITDIHYNGYIIPKGWKLLWTPYTTHPKEMYFSEPEKFLPSRFDQEGKLVAPYTFLPFGGGQRSCPGWEFSKMEILLSVHHFVKTFSTFTPVDPAEIIARDSLCPLPSNGFSVKLFPRSYSLHTGNQVKKI
B5: in data set [1], the “product identified HPLC peak” value was “No”. The CO diff. spec. result in data set [2] is recorded as “+”.

B6: clone F7: Taxus cuspidata cytochrome P450 oxygenase, full-length clone, SEQ ID NO: 83 (nt) / 89 (aa) (protein, listed as Taxus cuspidata)
chain: MDSFTFVTIKMGKIWQVIQVEYILSLTLTAILLFFFRYRNKSSHKLPPGNLGFPFIGETIQFLRSLRSQTPEFFFDERVKKFGPVFKTSLIGAPTVIFCGAAGSRLVLSNEDKLVQMESPSSLKKLMGENSILYKREEEHRILRSALSRFLGPQALQTYIAKMSTEIERHINEKWKGKEEVKTLPLIRGLVFSIASSLFFDINDEPQQERLHHHLESLVAGSMAVRLDFPGTRFRKAVEARSKLDEALHSLIKSRRSDLLSGKASSNQDLLSVLLSFKDERGNPLRDEEILDNFSLILHASYDTTISPMVLTLKLLSSNPECYDKVVQEQFGILANKKEGEEISWKDLKAMKYTWQVVQETLRMFPPLFGSFRKAMVDINYDGYTIPKGWIVLWTTYSTHVKEEYFNEPGKFRPSRFEHDGRHVAPYTFLPFGGGLRTCPGWEFSKTEILLFIHHFVKTFGSYLPVDPNEKISADPFPPLPANGFSIKLFPRS
Take B6: the “product identified HPLC peak” value in data set [1] is listed as “No”. Besides, the CO diff. spec. entry in data set [2] is recorded as “−”.
